T1: 5-enol-pyruvyl-shikimate-3-phosphate synthase (AtEPSPS) (Arabidopsis thaliana, UniProt P05466)
T1 construct: gene At2g45300; residues 77-520 (starts from Lys77, preceded by Ser-Asn-Ala)
T1 sequence (P05466 77-520): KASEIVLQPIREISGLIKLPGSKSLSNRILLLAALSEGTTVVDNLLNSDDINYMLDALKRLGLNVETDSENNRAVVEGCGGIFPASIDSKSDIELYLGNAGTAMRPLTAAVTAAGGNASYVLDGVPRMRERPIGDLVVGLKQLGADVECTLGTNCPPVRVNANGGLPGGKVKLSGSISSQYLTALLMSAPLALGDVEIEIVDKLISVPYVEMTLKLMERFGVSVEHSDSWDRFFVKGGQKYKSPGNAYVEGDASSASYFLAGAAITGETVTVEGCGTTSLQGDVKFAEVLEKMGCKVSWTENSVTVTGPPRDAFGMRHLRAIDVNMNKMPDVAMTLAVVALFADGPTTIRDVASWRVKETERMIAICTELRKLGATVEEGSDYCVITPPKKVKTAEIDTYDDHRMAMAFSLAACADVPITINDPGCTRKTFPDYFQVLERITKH

B1: 5-enol-pyruvyl-shikimate-3-phosphate synthase (AtEPSPS) (Arabidopsis thaliana) (protein)
chain: T1 sequence (P05466 77-520)
notes: residues 77-520 (starts from Lys77, preceded by Ser-Asn-Ala)

Legend:
[1] = target: T1, 5-enol-pyruvyl-shikimate-3-phosphate synthase (AtEPSPS); assay: malachite green phosphate-release assay, Lineweaver-Burk analysis (Ki vs PEP about […]; Ki vs S3P about […]; IC50 about […]); assay type: biochemical
[2] = substrate: O=C(O)C1=C[C@@H](OP(=O)(O)O)[C@@H](O)[C@H](O)C1; assay: steady-state kinetics of the purified enzyme, KM(app), malachite green assay; assay type: biochemical, Arabidopsis thaliana
[3] = substrate: C=C(OP(=O)(O)O)C(=O)O; assay: purified protein; details: glyphosate is competitive with respect to PEP

| Molecule | Ki [1] [µM] | Km [2] [µM] | Km [3] [µM] |
| --- | --- | --- | --- |
| O=C(O)CNCP(=O)(O)O [glyphosate, N-[phosphonomethyl]glycine] | ~1 | – | – |
| B1 | – | 200 | 185 |
